In publication PMC4838890, “Dynamic and flexible H3K9me3 bridging via HP1β dimerization establishes a plastic state of condensed chromatin” (Nature Communications, 2016):

Biological target: T1, H3K9me3 peptide (Homo sapiens, UniProt P68431)
T1 construct: C-terminally biotinylated histone H3 peptides (aa 1–20)
Assay: Pull-down, immobilized H3K9me3 peptide
Assay type: binding
Conditions: H3-tail peptides densely immobilized on magnetic beads, 100 pmol protein, 150 mM NaCl, 4°C
Protocol: 4 μg C-terminally biotinylated histone H3 peptides (aa 1–20) or 1 μg of biotinylated nucleosomes or oligonucleosomal arrays were incubated with 40 μl Streptavidin MagnaSphere Paramagmetic beads (Promega, Mannheim, Germany) in 350 μl binding buffer (10 mM triethanolamine (pH 7.5), 150 mM NaCl, 0.1 mM EDTA, 0.1% (v/v) Triton-X100) supplemented with 1 mg ml^−1 BSA for 2.5 h at RT. Unbound material was removed by three washes with 0.5 ml binding buffer. Charged beads were then incubated with 100 pmol recombinant protein in 350 μl binding buffer for 1 h at 4°C on a rotator. Beads were washed three times with 0.5 ml binding buffer for 3 min per wash at 4°C. Bound proteins were eluted in 20 μl 1 × SDS loading buffer and by boiling for 5 min.
Supplementary Table 1: Summary of conditions used in the different experiments of this study. experiment result modification template Temp. [NaCl] [MgCl2] […]
chromatin Fig. 1e,f; Fig. S1f-h; H3K9me3 oligo- 4 150 5 coprecipitation Fig. S2b nucleosomes
Fig. S7d,f; Fig.S9c nucleosomes […]
chromatin sedimentation Fig. 4a; H3K9me3 oligo- 4 150 0
(single point) Fig. S3b nucleosomes […]
chromatin sedimentation. oligo-(titration) Fig. 3a H3K9me3 nucleosomes 4 150 0

recovery on H3K9me3 peptide: significantly reduced recovery
Substance: hHP1β I161A: CSD point mutant of hHP1β incapable of dimerization
